Laboratory results from PMC9520665, “Chaperonin containing TCP-1 (CCT/TRiC) is a novel therapeutic and diagnostic target for neuroblastoma” (Frontiers in Oncology, 2022).
Where no end group is shown, it is not given here.

Experiments:
full-length HIS-CCT2 = target: T1, full-length HIS-CCT2 (human, UniProt P78371-1 1-535); assay: pull-down; 0.1-50 nmol biotin-CT20p (or biotin alone) mixed with 0.1 nmol recombinant CCT2 protein in 20 mM Tris-HCl, 3 h at room temperature, then overnight at 4°C with streptavidin-agarose beads; immunoblot for CCT2; settings: both partners purified
T1 construct: CCT2, second subunit of chaperonin containing TCP-1 (CCT/TRiC); The species is stated for CCT2 in general (human), not for the recombinant construct; also called recombinant full-length CCT2 protein; CCTβ; source: E. coli BL21 (DE3) and Rosetta, purified (Ni-NTA, SEC)
T1 sequence (looked up): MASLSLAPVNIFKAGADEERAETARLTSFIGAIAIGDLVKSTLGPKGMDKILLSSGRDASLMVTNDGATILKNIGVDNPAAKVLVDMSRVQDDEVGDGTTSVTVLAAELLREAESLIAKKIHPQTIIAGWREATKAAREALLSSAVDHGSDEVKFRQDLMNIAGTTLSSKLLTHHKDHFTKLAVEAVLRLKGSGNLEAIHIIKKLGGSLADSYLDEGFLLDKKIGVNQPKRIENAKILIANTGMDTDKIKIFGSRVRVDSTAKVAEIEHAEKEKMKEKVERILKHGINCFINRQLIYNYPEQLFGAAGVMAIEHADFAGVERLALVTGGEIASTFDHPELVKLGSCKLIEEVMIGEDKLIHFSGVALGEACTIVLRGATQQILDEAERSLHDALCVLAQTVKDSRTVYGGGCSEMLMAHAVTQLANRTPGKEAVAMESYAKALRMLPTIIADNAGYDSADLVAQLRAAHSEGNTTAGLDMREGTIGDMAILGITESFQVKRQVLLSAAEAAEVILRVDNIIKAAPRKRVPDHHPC

CCT2(17-526) = target: T2, CCT2(17-526) (human, UniProt P78371-1 17-526); assay: as above; settings: both partners purified
T2 construct: CCT2 truncation that retains more of the equatorial domain; A TEV protease site replaced the thrombin site between GST and CCT2
T2 sequence (looked up): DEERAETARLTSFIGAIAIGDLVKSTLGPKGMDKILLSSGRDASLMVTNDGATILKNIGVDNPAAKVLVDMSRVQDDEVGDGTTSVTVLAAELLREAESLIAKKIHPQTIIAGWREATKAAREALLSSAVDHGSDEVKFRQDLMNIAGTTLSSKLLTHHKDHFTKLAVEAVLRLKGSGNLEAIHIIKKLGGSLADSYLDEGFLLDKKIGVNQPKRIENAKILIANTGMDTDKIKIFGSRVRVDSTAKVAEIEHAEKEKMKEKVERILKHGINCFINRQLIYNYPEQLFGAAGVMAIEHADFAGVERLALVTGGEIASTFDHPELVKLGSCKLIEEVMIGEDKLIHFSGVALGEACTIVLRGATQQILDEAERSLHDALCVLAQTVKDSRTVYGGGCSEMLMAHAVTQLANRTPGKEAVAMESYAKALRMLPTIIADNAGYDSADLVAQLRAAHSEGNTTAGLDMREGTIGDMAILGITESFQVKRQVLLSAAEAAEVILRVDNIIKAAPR

binding result (full-length HIS-CCT2): binds | binding result (CCT2(17-526)): binds
B1: biotinylated CT20p (peptide)
peptide: VTIFVAGVLTASLTIWKKMG
modifications: also: biotin, position not given here
notes: 20 amino acid amphipathic peptide derived from the C-terminus of the apoptotic protein Bax; also called biotin-CT20p; source: synthetic peptide, commercially synthesized (BioPeptides Inc)
